Legend:
[1] = tested on: HeLa Kyoto; assay: solubility in G1/S (NP-40 vs SDS abundance) (log2 ratio); higher = more soluble; details: cell cycle stage: G1/S
[2] = tested on: HeLa Kyoto; assay: melting temperature (median over replicates), in situ; higher = more thermally stable
[3] = tested on: HeLa Kyoto; assay: solubility change mitosis vs G1/S (difference of NP-40 vs SDS log2 ratios) (log2 ratio difference); higher = more soluble in mitosis
[4] = tested on: HeLa Kyoto; assay: thermal stability score vs G1/S (z-score of summed log2 fold changes over temperatures); higher = more thermally stable than in G1/S
[5] = cell cycle stage: early G1 (4.5 h after nocodazole release)
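For melting temperature (median over replicates), in situ in this document: HeLa Kyoto cells synchronized by double thymidine or nocodazole block, proteins quantified by TMT10plex mass spectrometry, three independent biological replicates.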
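For solubility change mitosis vs G1/S (difference of NP-40 vs SDS log2 ratios) in this document: synchronized HeLa Kyoto cells (double thymidine block for G1/S, nocodazole release for mitosis), protein amounts in NP-40 versus SDS lysates quantified by mass spectrometry, three biological replicates.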
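For solubility in G1/S (NP-40 vs SDS abundance) in this document: HeLa Kyoto cells arrested at G1/S by double thymidine block, proteins quantified by TMT10plex mass spectrometry in mild NP-40 versus SDS extracts, three biological replicates.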
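For thermal stability score vs G1/S (z-score of summed log2 fold changes over temperatures) in this document: synchronized HeLa Kyoto cells, proteins quantified by TMT10plex mass spectrometry, three biological replicates, mitosis taken 0.5 h after nocodazole release, G1/S directly after double thymidine block.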

| Sequence | solubility in G1/S (log2) [1] | melting temperature ([2]; cell cycle stage: G1/S) [°C] | melting temperature ([2]; cell cycle stage: mitosis) [°C] | solubility change mitosis (log2) [3] | thermal stability score [4, 5] | thermal stability score ([4]; cell cycle stage: mitosis) |
| --- | --- | --- | --- | --- | --- | --- |
| MEVVPAEVNSLLPEEIMDTGITLVDDDSIEAVIVSSPIPMETELEEIVNINSTGDSTATPISTEPITVYSNHTNQVAVNTTITKADSNTTVKPAFPSGLQKLGAQTPVTISANQIILNKVSQTSDLKLGNQTLKPDGQKLILTTLGKSGSPIVLALPHSQLPQAQKVTTQAQSGDAKLPPQQIKVVTIGGRPEVKPVIGVSALTPGSQLINTTTQPSVLQTQQLKTVQIAKKPRTPTSGPVITKLIFAKPINSKAVTGQTTQVSPPVIAGRVLSQSTPGTPSKTITISESGVIGSTLNSTTQTPNKIAISPLKSPNKAVKSTVQTITVGGVSTSQFKTIIPLATAPNVQQIQVPGSKFHYVRLVTATSASSSTQPVSQNPSTNTQPLQQAKPVVVNTTPVRMSVPIVSAQAVKQVVPKPINPTSQIVTTSQPQQRLIMPATPLPQIQPNLTNLPPGTVLAPAPGTGNVGYAVLPAQYVTQLQQSSYVSIASNSTFTGTSGIQTQARLPFNGIIPSESASRPRKPCNCTKSLCLKLYCDCFANGEFCNNCNCTNCYNNLEHENERQKAIKACLDRNPEAFKPKIGKGKEGESDRRHSKGCNCKRSGCLKNYCECYEAKIMCSSICKCIGCKNFEESPERKTLMHLADAAEVRVQQQTAAKTKLSSQISDLLTRPTPALNSGGGKLPFTFVTKEVAEATCNCLLAQAEQADKKGKSKAAAERMILEEFGRCLMSVINSAGKAKSDPCAMNC [LIN54] | 0.15 | 46.4 | 50.1 | -0.11 | 0.22 | 0.778 |
| MFAKAFRVKSNTAIKGSDRRKLRADVTTAFPTLGTDQVSELVPGKEELNIVKLYAHKGDAVTVYVSGGNPILFELEKNLYPTVYTLWSYPDLLPTFTTWPLVLEKLVGGADLMLPGLVMPPAGLPQVQKGDLCAISLVGNRAPVAIGVAAMSTAEMLTSGLKGRGFSVLHTYQDHLWRSGNKSSPPSIAPLALDSADLSEEKGSVQMDSTLQGDMRHMTLEGEEENGEVHQAREDKSLSEAPEDTSTRGLNQDSTDSKTLQEQMDELLQQCFLHALKCRVKKADLPLLTSTFLGSHMFSCCPEGRQLDIKKSSYKKLSKFLQQMQQEQIIQVKELSKGVESIVAVDWKHPRITSFVIPEPSPTSQTIQEGSREQPYHPPDIKPLYCVPASMTLLFQESGHKKGSFLEGSEVRTIVINYAKKNDLVDADNKNLVRLDPILCDCILEKNEQHTVMKLPWDSLLTRCLEKLQPAYQVTLPGQEPIVKKGRICPIDITLAQRASNKKVTVVRNLEAYGLDPYSVAAILQQRCQASTTVNPAPGAKDSLQVQIQGNQVHHLGWLLLEEYQLPRKHIQGLEKALKPGKKK [EIF2D] | 0.234 | 48.3 | 48.3 | -0.0853 | 0.861 | 1.5 |
| MFAKATRNFLREVDADGDLIAVSNLNDSDKLQLLSLVTKKKRFWCWQRPKYQFLSLTLGDVLIEDQFPSPVVVESDFVKYEGKFANHVSGTLETALGKVKLNLGGSSRVESQSSFGTLRKQEVDLQQLIRDSAERTINLRNPVLQQVLEGRNEVLCVLTQKITTMQKCVISEHMQVEEKCGGIVGIQTKTVQVSATEDGNVTKDSNVVLEIPAATTIAYGVIELYVKLDGQFEFCLLRGKQGGFENKKRIDSVYLDPLVFREFAFIDMPDAAHGISSQDGPLSVLKQATLLLERNFHPFAELPEPQQTALSDIFQAVLFDDELLMVLEPVCDDLVSGLSPTVAVLGELKPRQQQDLVAFLQLVGCSLQGGCPGPEDAGSKQLFMTAYFLVSALAEMPDSAAALLGTCCKLQIIPTLCHLLRALSDDGVSDLEDPTLTPLKDTERFGIVQRLFASADISLERLKSSVKAVILKDSKVFPLLLCITLNGLCALGREHS [DFNA5] | -0.0213 | 52.8 | 53.7 | -0.126 | 1.33 | 2.07 |
| MFCEKAMELIRELHRAPEGQLPAFNEDGLRQVLEEMKALYEQNQSDVNEAKSGGRSDLIPTIKFRHCSLLRNRRCTVAYLYDRLLRIRALRWEYGSVLPNALRFHMAAEEMEWFNNYKRSLATYMRSLGGDEGLDITQDMKPPKSLYIEVRCLKDYGEFEVDDGTSVLLKKNSQHFLPRWKCEQLIRQGVLEHILS [GINS1] | -0.0577 | 52.5 | 51.7 | -0.00378 | -0.0841 | -0.424 |
| MFGPAKGRHFGVHPAPGFPGGVSQQAAGTKAGPAGAWPVGSRTDTMWRLRCKAKDGTHVLQGLSSRTRVRELQGQIAAITGIAPGGQRILVGYPPECLDLSNGDTILEDLPIQSGDMLIIEEDQTRPRSSPAFTKRGASSYVRETLPVLTRTVVPADNSCLFTSVYYVVEGGVLNPACAPEMRRLIAQIVASDPDFYSEAILGKTNQEYCDWIKRDDTWGGAIEISILSKFYQCEICVVDTQTVRIDRFGEDAGYTKRVLLIYDGIHYDPLQRNFPDPDTPPLTIFSSNDDIVLVQALELADEARRRRQFTDVNRFTLRCMVCQKGLTGQAEAREHAKETGHTNFGEV [YOD1] | 0.0787 | 50.2 | 50.2 | 0.0334 | 0.646 | 1.06 |
| MFGRSRSWVGGGHGKTSRNIHSLDHLKYLYHVLTKNTTVTEQNRNLLVETIRSITEILIWGDQNDSSVFDFFLEKNMFVFFLNILRQKSGRYVCVQLLQTLNILFENISHETSLYYLLSNNYVNSIIVHKFDFSDEEIMAYYISFLKTLSLKLNNHTVHFFYNEHTNDFALYTEAIKFFNHPESMVRIAVRTITLNVYKVSLDNQAMLHYIRDKTAVPYFSNLVWFIGSHVIELDDCVQTDEEHRNRGKLSDLVAEHLDHLHYLNDILIINCEFLNDVLTDHLLNRLFLPLYVYSLENQDKGGERPKISLPVSLYLLSQVFLIIHHAPLVNSLAEVILNGDLSEMYAKTEQDIQRSSAKPSIRCFIKPTETLERSLEMNKHKGKRRVQKRPNYKNVGEEEDEEKGPTEDAQEDAEKAKGTEGGSKGIKTSGESEEIEMVIMERSKLSELAASTSVQEQNTTDEEKSAAATCSESTQWSRPFLDMVYHALDSPDDDYHALFVLCLLYAMSHNKGMDPEKLERIQLPVPNAAEKTTYNHPLAERLIRIMNNAAQPDGKIRLATLELSCLLLKQQVLMSAGCIMKDVHLACLEGAREESVHLVRHFYKGEDIFLDMFEDEYRSMTMKPMNVEYLMMDASILLPPTGTPLTGIDFVKRLPCGDVEKTRRAIRVFFMLRSLSLQLRGEPETQLPLTREEDLIKTDDVLDLNNSDLIACTVITKDGGMVQRFLAVDIYQMSLVEPDVSRLGWGVVKFAGLLQDMQVTGVEDDSRALNITIHKPASSPHSKPFPILQATFIFSDHIRCIIAKQRLAKGRIQARRMKMQRIAALLDLPIQPTTEVLGFGLGSSTSTQHLPFRFYDQGRRGSSDPTVQRSVFASVDKVPGFAVAQCINQHSSPSLSSQSPPSASGSPSGSGSTSHCDSGGTSSSSTPSTAQSPADAPMSPELPKPHLPDQLVIVNETEADSKPSKNVARSAAVETASLSPSLVPARQPTISLLCEDTADTLSVESLTLVPPVDPHSLRSLTGMPPLSTPAAACTEPVGEEAACAEPVGTAED [CLEC16A] | -0.224 | 55.7 | 57.4 | -0.241 | -1.42 | -1.87 |
| MFGTLLLYCFFLATVPALAETGGERQLSPEKSEIWGPGLKADVVLPARYFYIQAVDTSGNKFTSSPGEKVFQVKVSAPEEQFTRVGVQVLDRKDGSFIVRYRMYASYKNLKVEIKFQGQHVAKSPYILKGPVYHENCDCPLQDSAAWLREMNCPETIAQIQRDLAHFPAVDPEKIAVEIPKRFGQRQSLCHYTLKDNKVYIKTHGEHVGFRIFMDAILLSLTRKVKMPDVELFVNLGDWPLEKKKSNSNIHPIFSWCGSTDSKDIVMPTYDLTDSVLETMGRVSLDMMSVQANTGPPWESKNSTAVWRGRDSRKERLELVKLSRKHPELIDAAFTNFFFFKHDENLYGPIVKHISFFDFFKHKYQINIDGTVAAYRLPYLLVGDSVVLKQDSIYYEHFYNELQPWKHYIPVKSNLSDLLEKLKWAKDHDEEAKKIAKAGQEFARNNLMGDDIFCYYFKLFQEYANLQVSEPQIREGMKRVEPQTEDDLFPCTCHRKKTKDEL [KDELC1] | 0.0317 | 53.5 | 54 | -0.102 | 2.25 | 2.83 |
| MFPAAPSPRTPGTGSRRGPLAGLGPGSTPRTASRKGLPLGSAVSSPVLFSPVGRRSSLSSRGTPTRMFPHHSITESVNYDVKTFGSSLPVKVMEALTLAEVDDQLTINIDEGGWACLVCKEKLIIWKIALSPITKLSVCKELQLPPSDFHWSADLVALSYSSPSGEAHSTQAVAVMVATREGSIRYWPSLAGEDTYTEAFVDSGGDKTYSFLTAVQGGSFILSSSGSQLIRLIPESSGKIHQHILPQGQGMLSGIGRKVSSLFGILSPSSDLTLSSVLWDRERSSFYSLTSSNISKWELDDSSEKHAYSWDINRALKENITDAIWGSESNYEAIKEGVNIRYLDLKQNCDGLVILAAAWHSADNPCLIYYSLITIEDNGCQMSDAVTVEVTQYNPPFQSEDLILCQLTVPNFSNQTAYLYNESAVYVCSTGTGKFSLPQEKIVFNAQGDSVLGAGACGGVPIIFSRNSGLVSITSRENVSILAEDLEGSLASSVAGPNSESMIFETTTKNETIAQEDKIKLLKAAFLQYCRKDLGHAQMVVDELFSSHSDLDSDSELDRAVTQISVDLMDDYPASDPRWAESVPEEAPGFSNTSLIILHQLEDKMKAHSFLMDFIHQVGLFGRLGSFPVRGTPMATRLLLCEHAEKLSAAIVLKNHHSRLSDLVNTAILIALNKREYEIPSNLTPADVFFREVSQVDTICECLLEHEEQVLRDAPMDSIEWAEVVINVNNILKDMLQAASHYRQNRNSLYRREESLEKEPEYVPWTATSGPGGIRTVIIRQHEIVLKVAYPQADSNLRNIVTEQLVALIDCFLDGYVSQLKSVDKSSNRERYDNLEMEYLQKRSDLLSPLLSLGQYLWAASLAEKYCDFDILVQMCEQTDNQSRLQRYMTQFADQNFSDFLFRWYLEKGKRGKLLSQPISQHGQLANFLQAHEHLSWLHEINSQELEKAHATLLGLANMETRYFAKKKTLLGLSKLAALASDFSEDMLQEKIEEMAEQERFLLHQETLPEQLLAEKQLNLSAMPVLTAPQLIGLYICEENRRANEYDFKKALDLLEYIDEEEDININDLKLEILCKALQRDNWSSSDGKDDPIEVSKDSIFVKILQKLLKDGIQLSEYLPEVKDLLQADQLGSLKSNPYFEFVLKANYEYYVQGQI [NUP133] | -0.454 | 51.9 | 49.6 | 0.284 | -2.95 | -2.97 |
| MFPFYSCWRTGLLLLLLAVAVRESWQTEEKTCDLVGEKGKESEKELALVKRLKPLFNKSFESTVGQGSDTYIYIFRVCREAGNHTSGAGLVQINKSNGKETVVGRLNETHIFNGSNWIMLIYKGGDEYDNHCGKEQRRAVVMISCNRHTLADNFNPVSEERGKVQDCFYLFEMDSSLACSPEISHLSVGSILLVTFASLVAVYVVGGFLYQRLVVGAKGMEQFPHLAFWQDLGNLVADGCDFVCRSKPRNVPAAYRGVGDDQLGEESEERDDHLLPM [M6PR] | 0.0483 | 60.3 | 59.1 | -0.128 | -1.67 | -2.67 |
| MFQFHAGSWESWCCCCLIPADRPWDRGQHWQLEMADTRSVHETRFEAAVKVIQSLPKNGSFQPTNEMMLKFYSFYKQATEGPCKLSRPGFWDPIGRYKWDAWSSLGDMTKEEAMIAYVEEMKKIIETMPMTEKVEELLRVIGPFYEIVEDKKSGRSSDITSVRLEKISKCLEDLGNVLTSTPNAKTVNGKAESSDSGAESEEEEAQEEVKGAEQSDNDKKMMKKSADHKNLEVIVTNGYDKDGFVQDIQNDIHASSSLNGRSTEEVKPIDENLGQTGKSAVCIHQDINDDHVEDVTGIQHLTSDSDSEVYCDSMEQFGQEESLDSFTSNNGPFQYYLGGHSSQPMENSGFREDIQVPPGNGNIGNMQVVAVEGKGEVKHGGEDGRNNSGAPHREKRGGETDEFSNVRRGRGHRMQHLSEGTKGRQVGSGGDGERWGSDRGSRGSLNEQIALVLMRLQEDMQNVLQRLQKLETLTALQAKSSTSTLQTAPQPTSQRPSWWPFEMSPGVLTFAIIWPFIAQWLVYLYYQRRRRKLN [ACBD5] | 0.0763 | 47.3 | 49.4 | -0.129 | 2.16 | 3.53 |

— the supplement of paper PMC5998384
